Data taken from paper PMC5278347, “Identification and Characterization of a Plastidic Adenine Nucleotide Uniporter (OsBT1-3) Required for Chloroplast Development in the Early Leaf Stage of Rice” (Scientific Reports, 2017).

T1: OsBT1-3 (Oryza sativa, UniProt A0A0P0WYD6)
T1 construct: gene Os06g0602700; E. coli Rosetta(DE3)pLysS, intact cells; antibody peptide VPGTEAESVNEEEVVDGK
T1 sequence (A0A0P0WYD6 1-423): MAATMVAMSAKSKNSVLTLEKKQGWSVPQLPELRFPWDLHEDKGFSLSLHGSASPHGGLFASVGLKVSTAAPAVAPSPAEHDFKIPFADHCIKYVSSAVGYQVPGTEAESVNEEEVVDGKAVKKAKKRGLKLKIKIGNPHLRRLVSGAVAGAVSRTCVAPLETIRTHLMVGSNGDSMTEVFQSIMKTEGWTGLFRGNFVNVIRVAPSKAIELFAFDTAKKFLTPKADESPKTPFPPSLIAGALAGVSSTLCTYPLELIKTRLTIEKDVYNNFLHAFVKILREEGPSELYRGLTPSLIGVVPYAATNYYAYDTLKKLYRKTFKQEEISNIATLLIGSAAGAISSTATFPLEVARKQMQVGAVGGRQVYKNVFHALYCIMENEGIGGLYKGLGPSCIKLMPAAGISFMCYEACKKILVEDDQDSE

B1: OsBT1-3 (Oryza sativa Japonica Group) (protein)
chain: T1 sequence (A0A0P0WYD6 1-423)
notes: E. coli Rosetta(DE3)pLysS, intact cells; antibody peptide VPGTEAESVNEEEVVDGK

Assays:
OsBT1-3 = target: T1, OsBT1-3; assay: inhibition of [α^32P]-ATP uptake into E. coli cells; assay type: cell-based; conditions: 2000 µM; 2 mM PLP; lysozyme-treated cells; ATP printed as 50 mM (probably μM)
[1] = substrate: Nc1ncnc2c1ncn2[C@@H]1O[C@H](COP(=O)(O)O)[C@@H](O)[C@H]1O; assay: cells, lysate or membranes; assay type: cell-based, Oryza sativa; conditions: labelled compound ([^14C]-AMP); 0 to 900 μM; IPTG-induced cells, non-induced background subtracted
[2] = substrate: Nc1ncnc2c1ncn2[C@@H]1O[C@H](COP(=O)(O)OP(=O)(O)O)[C@@H](O)[C@H]1O; assay: cells, lysate or membranes; assay type: cell-based, Oryza sativa; conditions: labelled compound ([α^32P]-ADP); 0 to 900 μM; IPTG-induced cells, non-induced background subtracted
[3] = substrate: Nc1ncnc2c1ncn2[C@@H]1O[C@H](COP(=O)(O)OP(=O)(O)OP(=O)(O)O)[C@@H](O)[C@H]1O; assay: cells, lysate or membranes; assay type: cell-based, Oryza sativa; conditions: labelled compound ([α^32P]-ATP); 0 to 900 μM; IPTG-induced cells, non-induced background subtracted

| Molecule | Transport Rate (%) (OsBT1-3) | Km [1] | Km [2] | Km [3] |
| --- | --- | --- | --- | --- |
| Cc1ncc(COP(=O)(O)O)c(C=O)c1O [PLP] | 27.4 ± 1.9% |  |  |  |
| B1 |  | 106.1 ± 3.45 µM | 101.7 ± 7.62 µM | 83.5 ± 2.74 µM |
